B1: His-PfAldolase (Plasmodium falciparum fructose 1,6 bisphosphate aldolase) (enzyme, UniProt Q7KQL9 1-369, looked up)
chain: MAHCTEYMNAPKKLPADVAEELATTAQKLVQAGKGILAADESTQTIKKRFDNIKLENTIENRASYRDLLFGTKGLGKFISGAILFEETLFQKNEAGVPMVNLLHNENIIPGIKVDKGLVNIPCTDEEKSTQGLDGLAERCKEYYKAGARFAKWRTVLVIDTAKGKPTDLSIHETAWGLARYASICQQNRLVPIVEPEILADGPHSIEVCAVVTQKVLSCVFKALQENGVLLEGALLKPNMVTAGYECTAKTTTQDVGFLTVRTLRRTVPPALPGVVFLSGGQSEEEASVNLNSINALGPHPWALTFSYGRALQASVLNTWQGKKENVAKAREVLLQRAEANSLATYGKYKGGAGGENAGASLYEKKYVY
notes: Detected by anti-His Western blot in the sedimentation assay; source: E. coli BL21 (DE3), purified (IMAC, cation exchange, SEC); not shown: His6, N-terminal, kept
B2: PfCoronin 1-388 (N-terminal beta-propeller domain of Plasmodium falciparum coronin) (domain or fragment)
chain: MYNVPLIKNLYPDPSNNLYGDLRICSRATETCGIACSAGYIAVPWQVEGGGMIGVIRLENQVRNPPVIKLKSHTSPILDLSFNPCYSEILASCSEDMSIRIWEIRHEDENVNEVKDPLCILNGHKKKVNILSWNPMNYFILSSTSFDSSVNIWDIENEKKAFEINMPKKLSSLQWDIGGNLLSGTCQNKQIHIIDPRKQEICNSFLIHDGGKSTKCIWIDGFGGEDKCILTTGFSKNNMRELKLWSLKNTTSPLTTITLDNAASPLLPHYDESVGMIYLIGKGDGNCRYYQYSQGSIRKVDEYKSCLPFRSFGFLPKRMCDVYKCEIGRVYKNENNTDIRPISFYVPRKNSSIFQEDLYPPIIMRDPERSTNKWIDGINLDIKRVSIK

Columns and labels:
[1] = biological target: the molecule itself; assay: SEC; Superdex 200 10/300, 50 mM MES pH 7.0, 100 mM NaCl, 2 mM DTT, 1 mM EDTA; single peak at ~13 mL, ~160 kDa
[2] = biological target: rabbit skeletal muscle actin (filamentous, Mg-ATP-actin polymerised) (rabbit, UniProt P68135 1-377); assay: co-sedimentation; settings: both partners purified

Row | Binder | stoichiometry N [1] | Kd [2] [nM]
1 | B1 | ~4 | –
2 | B2 | – | 956
